Measured values published in publication PMC4046141, “Exploring the evolutionary route of the acquisition of betaine aldehyde dehydrogenase activity by plant ALDH10 enzymes: implications for the synthesis of the osmoprotectant glycine betaine” (BMC Plant Biology, 2014).

Experiments:
[1] = substrate: NCCC=O; assay: spectrophotometric initial velocity, fit to substrate-inhibition equation; format: biochemical, Spinacia oleracea; settings: 0.2 mM NAD+, 50 mM HEPES-KOH pH 8.0, 0.1 mM EDTA, 30 °C, apparent
Source text: spectrophotometric initial velocity, fit to substrate-inhibition equation on SoBADH

purified protein = substrate: C[N+](C)(C)CC=O; assay: purified protein; settings: 0.2 mM NAD+, 50 mM HEPES-KOH pH 8.0, 0.1 mM EDTA, 30 °C, apparent
[2] = substrate: NC(=O)c1ccc[n+]([C@@H]2O[C@H](COP(=O)(O)OP(=O)(O)OC[C@H]3O[C@@H](n4cnc5c(N)ncnc54)[C@H](O)[C@@H]3O)[C@@H](O)[C@H]2O)c1; assay: spectrophotometric initial velocity, Michaelis-Menten fit; format: biochemical, Spinacia oleracea; settings: fixed BAL at least 10x its Km, 50 mM HEPES-KOH pH 8.0, 0.1 mM EDTA, 30 °C, apparent, varied: cofactor
Source text: spectrophotometric initial velocity, Michaelis-Menten fit on SoBADH

Protein | Km [1] [µM] | kcat [1] [s⁻¹] | kcat/Km [1] [M⁻¹ s⁻¹] | Km (purified protein) [µM] | kcat (purified protein) [s⁻¹] | kcat/Km (purified protein) [M⁻¹ s⁻¹] | Km [2] [µM] | kcat [2] [s⁻¹] | kcat/Km [2] [M⁻¹ s⁻¹]
SoBADH (Spinacia oleracea; A441F) (protein, native homodimer) MAFPIPARQLFIDGEWREPIKKNRIPVINPSTEEIIGDIPAATAEDVEVAVVAARRAFRRNNWSATSGAHRATYLRAIAAKITEKKDHFVKLETIDSGKPFDEAVLDIDDVASCFEYFAGQAEALDGKQKAPVTLPMERFKSHVLRQPLGVVGLISPWNYPLLMATWKIAPALAAGCTAVLKPSELASVTCLEFGEVCNEVGLPPGVLNILTGLGPDAGAPLVSHPDVDKIAFTGSSATGSKVMASAAQLVKPVTLELGGKSPIVVFEDVDIDKVVEWTIFGCFWTNGQICSATSRLLVHESIAAEFVDKLVKWTKNIKISDPFEEGCRLGPVISKGQYDKIMKFISTAKSEGATILYGGSRPEHLKKGYYIEPTIVTDISTSMQIWKEEVFGPVLCVKTFSSEDEAIALANDTEYGLAAAVFSNDLERCERITKALEVGFVWVNCSQPCFVQAPWGGIKRSGFGRELGEWGIQNYLNIKQVTQDISDEPWGWYKSP | 3.7 ± 0.0 | 0.34 ± 0.04 | 92000 ± 11000 | 605 ± 26 | 0.29 | 480 | – | – | –
SoBADH (Spinacia oleracea; A441S) (protein, native homodimer) MAFPIPARQLFIDGEWREPIKKNRIPVINPSTEEIIGDIPAATAEDVEVAVVAARRAFRRNNWSATSGAHRATYLRAIAAKITEKKDHFVKLETIDSGKPFDEAVLDIDDVASCFEYFAGQAEALDGKQKAPVTLPMERFKSHVLRQPLGVVGLISPWNYPLLMATWKIAPALAAGCTAVLKPSELASVTCLEFGEVCNEVGLPPGVLNILTGLGPDAGAPLVSHPDVDKIAFTGSSATGSKVMASAAQLVKPVTLELGGKSPIVVFEDVDIDKVVEWTIFGCFWTNGQICSATSRLLVHESIAAEFVDKLVKWTKNIKISDPFEEGCRLGPVISKGQYDKIMKFISTAKSEGATILYGGSRPEHLKKGYYIEPTIVTDISTSMQIWKEEVFGPVLCVKTFSSEDEAIALANDTEYGLAAAVFSNDLERCERITKALEVGSVWVNCSQPCFVQAPWGGIKRSGFGRELGEWGIQNYLNIKQVTQDISDEPWGWYKSP | 2.0 ± 0.5 | 1.12 | 550000 ± 142000 | 119 ± 8 | 3.29 | 28000 | 29 ± 3 | 3.27 ± 0.18 | 114000 ± 20000
SoBADH (Spinacia oleracea) (protein, native homodimer) MAFPIPARQLFIDGEWREPIKKNRIPVINPSTEEIIGDIPAATAEDVEVAVVAARRAFRRNNWSATSGAHRATYLRAIAAKITEKKDHFVKLETIDSGKPFDEAVLDIDDVASCFEYFAGQAEALDGKQKAPVTLPMERFKSHVLRQPLGVVGLISPWNYPLLMATWKIAPALAAGCTAVLKPSELASVTCLEFGEVCNEVGLPPGVLNILTGLGPDAGAPLVSHPDVDKIAFTGSSATGSKVMASAAQLVKPVTLELGGKSPIVVFEDVDIDKVVEWTIFGCFWTNGQICSATSRLLVHESIAAEFVDKLVKWTKNIKISDPFEEGCRLGPVISKGQYDKIMKFISTAKSEGATILYGGSRPEHLKKGYYIEPTIVTDISTSMQIWKEEVFGPVLCVKTFSSEDEAIALANDTEYGLAAAVFSNDLERCERITKALEVGAVWVNCSQPCFVQAPWGGIKRSGFGRELGEWGIQNYLNIKQVTQDISDEPWGWYKSP | 3.9 ± 0.1 | 0.99 ± 0.04 | 256000 ± 5000 | 98 ± 15 | 3.36 | 35000 | 22 ± 2 | 4.25 ± 0.16 | 195000 ± 8000
SoBADH (Spinacia oleracea; A441T) (protein, native homodimer) MAFPIPARQLFIDGEWREPIKKNRIPVINPSTEEIIGDIPAATAEDVEVAVVAARRAFRRNNWSATSGAHRATYLRAIAAKITEKKDHFVKLETIDSGKPFDEAVLDIDDVASCFEYFAGQAEALDGKQKAPVTLPMERFKSHVLRQPLGVVGLISPWNYPLLMATWKIAPALAAGCTAVLKPSELASVTCLEFGEVCNEVGLPPGVLNILTGLGPDAGAPLVSHPDVDKIAFTGSSATGSKVMASAAQLVKPVTLELGGKSPIVVFEDVDIDKVVEWTIFGCFWTNGQICSATSRLLVHESIAAEFVDKLVKWTKNIKISDPFEEGCRLGPVISKGQYDKIMKFISTAKSEGATILYGGSRPEHLKKGYYIEPTIVTDISTSMQIWKEEVFGPVLCVKTFSSEDEAIALANDTEYGLAAAVFSNDLERCERITKALEVGTVWVNCSQPCFVQAPWGGIKRSGFGRELGEWGIQNYLNIKQVTQDISDEPWGWYKSP | 4.6 ± 0.5 | 1.5 ± 0.12 | 326000 ± 13000 | 180 ± 6 | 2.64 | 15000 | – | – | –
SoBADH (Spinacia oleracea; A441V) (protein, native homodimer) MAFPIPARQLFIDGEWREPIKKNRIPVINPSTEEIIGDIPAATAEDVEVAVVAARRAFRRNNWSATSGAHRATYLRAIAAKITEKKDHFVKLETIDSGKPFDEAVLDIDDVASCFEYFAGQAEALDGKQKAPVTLPMERFKSHVLRQPLGVVGLISPWNYPLLMATWKIAPALAAGCTAVLKPSELASVTCLEFGEVCNEVGLPPGVLNILTGLGPDAGAPLVSHPDVDKIAFTGSSATGSKVMASAAQLVKPVTLELGGKSPIVVFEDVDIDKVVEWTIFGCFWTNGQICSATSRLLVHESIAAEFVDKLVKWTKNIKISDPFEEGCRLGPVISKGQYDKIMKFISTAKSEGATILYGGSRPEHLKKGYYIEPTIVTDISTSMQIWKEEVFGPVLCVKTFSSEDEAIALANDTEYGLAAAVFSNDLERCERITKALEVGVVWVNCSQPCFVQAPWGGIKRSGFGRELGEWGIQNYLNIKQVTQDISDEPWGWYKSP | 1.1 ± 0.3 | 0.52 ± 0.1 | 473000 ± 216000 | 512 ± 79 | 0.54 | 1100 | 6.4 ± 0.5 | 0.51 | 80000 ± 5000
